B1: RopC: Rop variant with loop sequence GGGGMCAYDG, SEQ ID NO: 3 (protein, listed as Escherichia coli)
chain: MDYKDDDDKMTKQEKTALNMARFIRSQTLTLLEKLNELGGGGMCAYDGDEQADICESLHDHADELYRSCLARFGDDGENLHHHHHH
B2: RopN: Rop variant with loop sequence MCAYDGGGGG, SEQ ID NO: 1 (protein, listed as Escherichia coli)
chain: MDYKDDDDKMTKQEKTALNMARFIRSQTLTLLEKLNELMCAYDGGGGGDEQADICESLHDHADELYRSCLARFGDDGENLHHHHHH
B3: RopM: Rop variant with loop sequence GGMCAYDGGG, SEQ ID NO: 2 (protein, listed as Escherichia coli)
chain: MDYKDDDDKMTKQEKTALNMARFIRSQTLTLLEKLNELGGMCAYDGGGDEQADICESLHDHADELYRSCLARFGDDGENLHHHHHH
B4: mCherry192+ (protein, listed as Discosoma sp.)
chain: MDYKDDDDKMVSKGEEDNMAIIKEFMRFKVHMEGSVNGHEFEIEGEGEGRPYEGTQTAKLKVTKGGPLPFAWDILSPQFMYGSKAYVKHPADIPDYLKLSFPEGFKWERVMNFEDGGVVTVTQDSSLQDGEFIYKVKLRGTNFPSDGPVMQKKTMGWEASSERMYPEDGALKGEIKQRLKLKDGGHYDAEVKTTYKAKKPVMCAYDGQLPGAYNVNIKLDITSHNEDYTIVEQYERAEGRHSTGGMDELYKHHHHHH
B5: mCherry174+ (protein, listed as Discosoma sp.)
chain: MDYKDDDDKMVSKGEEDNMAIIKEFMRFKVHMEGSVNGHEFEIEGEGEGRPYEGTQTAKLKVTKGGPLPFAWDILSPQFMYGSKAYVKHPADIPDYLKLSFPEGFKWERVMNFEDGGVVTVTQDSSLQDGEFIYKVKLRGTNFPSDGPVMQKKTMGWEASSERMYPEDGALKGEIKQRLKLKDMCAYDGGGHYDAEVKTTYKAKKPVQLPGAYNVNIKLDITSHNEDYTIVEQYERAEGRHSTGGMDELYKHHHHHH
B6: MicD-F: constitutively activated cyclodehydratase, leader peptide fused to N-terminus of MicD, SEQ ID NO: 7 (protein, listed as Microcystis aeruginosa)
chain: MSHHHHHHDYDENLYFQGSRLTAGQLSSQLAELSEEALGDAGAGAGAGAGAKLMQSTPLLQIQPHFHVEVIEPKQVYLLGEQANYALTGQLYCQILPLLDGQHSREQIVEKLDGEVPSEYIDYVLDRLAEKGYLTEAAPELSSEVAAFWSELGIAPPVAAEALRQSVTLTPVGNISEVTVAALTTALRDIGISVQTPTEAGSPTALNVVLTDDYLQPELAKINKQALESQQTWLLVKPVGSVLWLGPVFVPGKTGCWDCLAHRLRGNREVEASVLQQKQAQQQRNGQSGSVIGCLPTARATLPSTLQTGLQFAATEIAKWIVKHHVKATAPGTVFFPTLDGKIITFNHTVIDLKSHVLVRRSQCPSCGDRQILHRQGFEPVKLVSRRKHFTHDGGHRAFTPEQTVQKYQHLVSPITGVVTELVRLTDPANPLVHTYKAGHAFGSATTLRGLRNTLKYKSSGKGKTDIQSRASGLCEAIERYSGIFQGDEPRKRATLAELGDLALHPESLLYFSNTQYANREELNAQGSAAAYRWIPNRFDVSQAIDWTPVWSLTEQKHKYVPTAFCYYGYPLPEEQRFCKADSNGNAAGNTLEEAILQGFLELVERDSIAMWWYNRIRRPAVDLSTFDEPYFVDLQQFYQQQNRELWVLDVTADLGIPAFAGFSRRTVGTSERISIGFGAHLDPTIAILRALTEVSQVGLELDKIPDDKLDGESKDWMLNVTVENHPWLAPDPSVPMKTASDYPKRWSDDIHTDVMNCVKTAQTAGLEVMVLDQTRPDIGLNVVKVIIPGMRTFWTRFGQGRLYDIPVKLGWLDAPLAEEELNQTNIPF

Columns and labels:
MicD-F = experiment: Reaction of protein substrates (mCherry and Rop variants) with MicD-F, LC-MS deconvoluted mass; format: biochemical, Microcystis aeruginosa; settings: for cyclodehydration of Rop variants to thiazoline / cyclodehydration of mCherry variants to thiazoline (loss of water): 50 mol % MicD-F; for cyclodehydration of mCherry variants to thiazoline (loss of water): 24 hours
Method: Reactions of proteins with MicD-F were performed in the manner described above with minor modifications. Namely, the substrate stock was a 1 mM solution of protein in 20 mM HEPES, 150 mM NaCl, 1 mM TCEP, pH 7.4.
(§1) Unprocessed reaction mixture (1 μL) was used for LC-MS analysis which was performed on an Agilent 1290 Infinity II HPLC connected to an Agilent 6530B QTOF AJS-ESI. The mobile phase for LC-MS was water and acetonitrile with 0.1% (v/v) formic acid and a flow rate of 0.4 mL/min. Each sample was injected onto a Poroshell 300SB-C8 column (2.1×75 mm, 5-Micron, room temperature, Agilent) using a linear gradient from 5 to 55% acetonitrile over 8 minutes after an initial hold at 5% acetonitrile for 2 minutes (0.4 mL/min). The following parameters were used during acquisition: Fragmentor voltage 225 V, gas temperature 300° C., gas flow 10 L/min, sheath gas temperature 350° C., sheath gas flow 11 L/min, nebulizer pressure 35 psi, skimmer voltage 65 V, Vcap 5000 V, 1 spectra/s. Intact protein masses were obtained via deconvolution using the Maximum Entropy algorithm in Mass Hunter Bioconfirm (V10, Agilent).

MicD-F and ArtGox = experiment: Reaction of protein substrates with MicD-F and ArtGox in tandem, LC-MS deconvoluted mass; format: biochemical, Microcystis aeruginosa; Arthrospira platensis; settings: 50 mol % MicD-F, 80 mol % ArtGox, 24 hours, pH 9.0, 37° C.
Method: Reactions of proteins with MicD-F and ArtGox were performed in the manner described above with minor modifications. The substrate stock was a 1 mM solution of protein in 20 mM HEPES, 150 mM NaCl, 1 mM TCEP, pH 7.4. Reactions were carried out at either 25° C. or 37° C. as indicated.
as §1

[1] = Analytical size-exclusion chromatography of Rop variants; format: physicochemical; settings: 50 μM
Method: To assess the homogeneity of isolated Rop variants, a solution of each protein was prepared (250 μg at 50 μM) in running buffer (10 mM phosphate, 100 mM NaCl, 150 µM TCEP, pH 7.0). A Superdex® 75 Increase 10/300 GL column (stored and operated at 4° C.) was washed with 2 column volumes (CV) of degassed and sterile filtered MilliQ water. The column was then equilibrated in running buffer for 2 CV. Each sample (500 μL) was applied to a 500 μL sample loop. The sample loop was washed with 2 mL of running buffer at 0.8 mL/min to load the sample onto the column. The sample was then eluted from the column by flowing running buffer at 0.8 mL/min for 1.30 CV. To assess column performance, a gel filtration standard (Bio-Rad Laboratories, Hercules, CA, catalog number 151-1901) containing 670 kDa, 158 kDa, 44 kDa, 17 kDa, and 1.35 kDa standards was used according to the manufacturer's instructions.

[2] = Circular dichroism of Rop variants (wavelength scans and temperature melts); format: physicochemical; settings: CD at 222 nm; for TM (melting temperature): 20 μM, 10 mM phosphate, 100 mM NaCl, 150 μM TCEP, pH 7.0
Method: RopN, RopM, and RopC were exchanged into CD buffer (10 mM phosphate, 100 mM NaCl, 150 μM TCEP, pH 7.0) using Amicon Ultra-0.5 mL centrifugal filters (MilliporeSigma, Burlington, MA) with a 3 kDa molecular weight cut-off according to the manufacturer's instructions and then diluted with the same buffer to a concentration of 20 μM. For CD analysis each Rop variant was transferred to a 1 mm quartz cuvette. Wavelength and temperature dependent CD spectra were collected with an AVIV Biomedical, Inc. (Lakewood, NJ) Circular Dichroism Spectrometer Model 410. For wavelength-dependent spectra, initial scans were performed from 200 to 300 nm at 25° C. in 2 nm increments with an averaging time of 5 seconds. For temperature melt experiments, the signal was monitored at 222 nm with an averaging time of 5 seconds. Temperature melts were performed from 5 to 90° C. in 1° C. increments with equilibration for 2 minutes before each measurement. Following the temperature melt the sample was returned to 25° C. and the wavelength-dependent CD spectra was measured once more to assess the reversibility of the melt. Raw data (mdeg) were converted to molar ellipticity ([Θ], in deg*cm^2*dmol^−1) by
where M is the mean residual weight (116.00 g/mol for RopN, RopM, and RopC), L is the pathlength of the cuvette in centimeters, and C is the concentration of the sample in g/L.7 The melting temperature was determined by fitting the molar ellipticity as a function of temperature to a Boltzmann sigmoidal curve using GraphPad Prism (Version 7.04).
CD analysis of RopC-U and RopC-Z was performed as described for RopN, RopM, and RopC with the following modifications. Temperature melts were performed from 5 to 90° C. in 2.5° C. increments. Before measuring the temperature melt for RopC-Z, the protein was refolded by performing an initial melt from 5 to 90° C. in 2.5° C. increments as described.

[3] = Temperature stability of MicD-F; format: physicochemical

Molecule | cyclodehydration of Rop variants to thiazoline (MicD-F; pH 9.0, 37° C., 16 h) | conversion of RopC into RopC-U (MicD-F; up to 50 μM MicD-F, 16 h, 25° C.) | conversion to the thiazole-modified protein (MicD-F and ArtGox) | migration / homogeneity on SEC [1] | unfolding behaviour in temperature melt [2] | TM (melting temperature) [2] | cyclodehydration of mCherry variants to thiazoline (loss of water) (MicD-F; pH 9.0, 37° C.) | cyclodehydration of mCherry variants to thiazoline (loss of water) (MicD-F; pH 9.0, 42° C.) | highest temperature at which MicD-F remained stable [3]
B1 | clean conversion | minimal | complete conversion | discrete dimers | melted cooperatively and reversibly | 28 °C |  |  | 
B2 | unreactive |  |  | heterogeneous mixture | melted non-cooperatively | 43 °C |  |  | 
B3 | reacted partially |  |  | discrete dimers | melted cooperatively and reversibly | 32 °C |  |  | 
B4 |  |  |  |  |  |  | no evidence of cyclodehydration | no evidence of cyclodehydration | 
B5 |  |  |  |  |  |  | no evidence of cyclodehydration | no evidence of cyclodehydration | 
B6 |  |  |  |  |  |  |  |  | 42 °C
